The record followed here is article PMC4832331, “Structural insights into the Escherichia coli lysine decarboxylases and molecular determinants of interaction with the AAA+ ATPase RavA” (Scientific Reports, 2016).

As usually defined, the stoichiometry N is the number of molecules, sites or subunits per partner or assembly.

First the molecules themselves.
B2: Escherichia coli inducible lysine decarboxylase LdcI (enzyme, E. coli)
chain: MNVIAILNHMGVYFKEEPIRELHRALERLNFQIVYPNDRDDLLKLIENNARLCGVIFDWDKYNLELCEEISKMNENLPLYAFANTYSTLDVSLNDLRLQISFFEYALGAAEDIANKIKQTTDEYINTILPPLTKALFKYVREGKYTFCTPGHMGGTAFQKSPVGSLFYDFFGPNTMKSDISISVSELGSLLDHSGPHKEAEQYIARVFNADRSYMVTNGTSTANKIVGMYSAPAGSTILIDRNCHKSLTHLMMMSDVTPIYFRPTRNAYGILGGIPQSEFQHATIAKRVKETPNATWPVHAVITNSTYDGLLYNTDFIKKTLDVKSIHFDSAWVPYTNFSPIYEGKCGMSGGRVEGKVIYETQSTHKLLAAFSQASMIHVKGDVNEETFNEAYMMHTTTSPHYGIVASTETAAAMMKGNAGKRLINGSIERAIKFRKEIKRLRTESDGWFFDVWQPDHIDTTECWPLRSDSTWHGFKNIDNEHMYLDPIKVTLLTPGMEKDGTMSDFGIPASIVAKYLDEHGIVVEKTGPYNLLFLFSIGIDKTKALSLLRALTDFKRAFDLNLRVKNMLPSLYREDPEFYENMRIQELAQNIHKLIVHHNLPDLMYRAFEVLPTMVMTPYAAFQKELHGMTEEVYLDEMVGRINANMILPYPPGVPLVMPGEMITEESRPVLEFLQMLCEIGAHYPGFETDIHGAYRQADGRYTVKVLKEESKK
notes: LdcI (CadA), inducible lysine decarboxylase of E. coli; wing domain 1-129, core domain 130-563, CTD 564-715; Decamer of two pentameric rings; The whole enzyme (715 residues) is likely; PLP cofactor was in the buffers; also called CadA; LdcIa (at pH 6.2); copies: 10
B5: Escherichia coli AAA+ ATPase RavA (enzyme)
chain: not shown
notes: RavA, AAA+ ATPase of E. coli; It was mixed in the presence of 2 mM ADP and 10 mM MgCl2

Data set [1] deals with the molecule itself. The data set is described as follows: not stated; purified chimeras alone; decamers 'visually indistinguishable from the wild-type proteins'.
Data set [2] deals with the molecule itself. In words: cryo-EM structure; LdcI alone, 2 mg/ml, 25 mM MES, 100 mM NaCl, 0.2 mM PLP, 1 mM DTT, pH 6.2; no ppGpp.
Data set [3] deals with the molecule itself. In words: cryo-EM structure; LdcC alone, 2 mg/ml, 25 mM HEPES, 100 mM NaCl, 0.2 mM PLP, 1 mM DTT, pH 7.2 (results say pH 7.5); no ppGpp.
Data set [4] deals with B5. In words: negative stain EM; 0.4 mg/ml RavA mixed with 0.3 mg/ml LdcI, LdcC, LdcCI or LdcIC; 2 mM ADP, 10 mM MgCl2, 20 mM Hepes, 150 mM NaCl, pH 7.4; 10 min at room temperature; 2% uranyl acetate. As to conditions: both partners purified.
The target in data set [5] is B2. The description is as above. The following applies: both partners purified.

B1: LdcIC chimera (LdcI with the C-terminal β-sheet of LdcC) (enzyme, E. coli, UniProt P0A9H3 1-630, looked up)
chain: MNVIAILNHMGVYFKEEPIRELHRALERLNFQIVYPNDRDDLLKLIENNARLCGVIFDWDKYNLELCEEISKMNENLPLYAFANTYSTLDVSLNDLRLQISFFEYALGAAEDIANKIKQTTDEYINTILPPLTKALFKYVREGKYTFCTPGHMGGTAFQKSPVGSLFYDFFGPNTMKSDISISVSELGSLLDHSGPHKEAEQYIARVFNADRSYMVTNGTSTANKIVGMYSAPAGSTILIDRNCHKSLTHLMMMSDVTPIYFRPTRNAYGILGGIPQSEFQHATIAKRVKETPNATWPVHAVITNSTYDGLLYNTDFIKKTLDVKSIHFDSAWVPYTNFSPIYEGKCGMSGGRVEGKVIYETQSTHKLLAAFSQASMIHVKGDVNEETFNEAYMMHTTTSPHYGIVASTETAAAMMKGNAGKRLINGSIERAIKFRKEIKRLRTESDGWFFDVWQPDHIDTTECWPLRSDSTWHGFKNIDNEHMYLDPIKVTLLTPGMEKDGTMSDFGIPASIVAKYLDEHGIVVEKTGPYNLLFLFSIGIDKTKALSLLRALTDFKRAFDLNLRVKNMLPSLYREDPEFYENMRIQELAQNIHKLIVHHNLPDLMYRAFEVLPTMVMTPYAAFQKELHGEVETIALEQLVGRINANMILPYPPGVPLVMPGEMITEESRPVLEFLQMLCEIGAHYPGFETDIHGAKQDEDGVYRVRVLKMAG
notes: E. coli LdcI up to the first exchanged stretch; E. coli LdcC, first strand region of the C-terminal β-sheet; E. coli LdcI between the two exchanged stretches; E. coli LdcC from 697 to the C-terminus, second strand region of the C-terminal β-sheet; Synthetic ldcIC gene of 2148 bp (GenScript) in the pET-TEV vector; source: E. coli Rosetta 2 (DE3), purified (Ni-NTA, TEV cleavage, second Ni-NTA, …)
Regarding B1, in data set [1], the “stoichiometry N” value came out at 10. For the molecule B2, the “stoichiometry N” value in data set [2] came to 10.

B3: Escherichia coli biosynthetic lysine decarboxylase LdcC (enzyme, E. coli)
chain: MNIIAIMGPHGVFYKDEPIKELESALVAQGFQIIWPQNSVDLLKFIEHNPRICGVIFDWDEYSLDLCSDINQLNEYLPLYAFINTHSTMDVSVQDMRMALWFFEYALGQAEDIAIRMRQYTDEYLDNITPPFTKALFTYVKERKYTFCTPGHMGGTAYQKSPVGCLFYDFFGGNTLKADVSISVTELGSLLDHTGPHLEAEEYIARTFGAEQSYIVTNGTSTSNKIVGMYAAPSGSTLLIDRNCHKSLAHLLMMNDVVPVWLKPTRNALGILGGIPRREFTRDSIEEKVAATTQAQWPVHAVITNSTYDGLLYNTDWIKQTLDVPSIHFDSAWVPYTHFHPIYQGKSGMSGERVAGKVIFETQSTHKMLAALSQASLIHIKGEYDEEAFNEAFMMHTTTSPSYPIVASVETAAAMLRGNPGKRLINRSVERALHFRKEVQRLREESDGWFFDIWQPPQVDEAECWPVAPGEQWHGFNDADADHMFLDPVKVTILTPGMDEQGNMSEEGIPAALVAKFLDERGIVVEKTGPYNLLFLFSIGIDKTKAMGLLRGLTEFKRSYDLNLRIKNMLPDLYAEDPDFYRNMRIQDLAQGIHKLIRKHDLPGLMLRAFDTLPEMIMTPHQAWQRQIKGEVETIALEQLVGRVSANMILPYPPGVPLLMPGEMLTKESRTVLDFLLMLCSVGQHYPGFETDIHGAKQDEDGVYRVRVLK
notes: LdcC, biosynthetic lysine decarboxylase of E. coli; Decamer; PLP cofactor was in the buffers; also called constitutive lysine decarboxylase; copies: 10
B3: the “stoichiometry N” value in data set [3] was found to be 10.

B4: LdcCI chimera (LdcC with the C-terminal β-sheet of LdcI) (enzyme, E. coli, UniProt P52095 1-630, looked up)
chain: MNIIAIMGPHGVFYKDEPIKELESALVAQGFQIIWPQNSVDLLKFIEHNPRICGVIFDWDEYSLDLCSDINQLNEYLPLYAFINTHSTMDVSVQDMRMALWFFEYALGQAEDIAIRMRQYTDEYLDNITPPFTKALFTYVKERKYTFCTPGHMGGTAYQKSPVGCLFYDFFGGNTLKADVSISVTELGSLLDHTGPHLEAEEYIARTFGAEQSYIVTNGTSTSNKIVGMYAAPSGSTLLIDRNCHKSLAHLLMMNDVVPVWLKPTRNALGILGGIPRREFTRDSIEEKVAATTQAQWPVHAVITNSTYDGLLYNTDWIKQTLDVPSIHFDSAWVPYTHFHPIYQGKSGMSGERVAGKVIFETQSTHKMLAALSQASLIHIKGEYDEEAFNEAFMMHTTTSPSYPIVASVETAAAMLRGNPGKRLINRSVERALHFRKEVQRLREESDGWFFDIWQPPQVDEAECWPVAPGEQWHGFNDADADHMFLDPVKVTILTPGMDEQGNMSEEGIPAALVAKFLDERGIVVEKTGPYNLLFLFSIGIDKTKAMGLLRGLTEFKRSYDLNLRIKNMLPDLYAEDPDFYRNMRIQDLAQGIHKLIRKHDLPGLMLRAFDTLPEMIMTPHQAWQRQIKGMTEEVYLDEMVGRVSANMILPYPPGVPLLMPGEMLTKESRTVLDFLLMLCSVGQHYPGFETDIHGAYRQADGRYTVKVLKEESKK
notes: E. coli LdcC up to the first exchanged stretch; E. coli LdcI, first strand region of the C-terminal β-sheet; E. coli LdcC between the two exchanged stretches; E. coli LdcI from 697 to the C-terminus, second strand region of the C-terminal β-sheet; Synthetic ldcCI gene of 2154 bp (GenScript) in the pET-TEV vector; source: E. coli Rosetta 2 (DE3), purified (Ni-NTA, TEV cleavage, second Ni-NTA, …)
Turning to B4, in data set [4], the binding result is listed as “binds”. Besides, the “stoichiometry N” value in data set [1] was found to be 10. For the molecule B5, the binding result in data set [5] is recorded as “binds”.
